Results taken from patent US20250122242A1, “SELECTION SYSTEMS, PEPTIDES DETERMINED THEREWITH, AND METHODS OF USING SAME” (Wisconsin Alumni Research Foundation, priority 2023, published 2025).

Experiments:
hIAPP [1] = biological target: T1, hIAPP (Homo sapiens, UniProt P10997); test: ThT fluorescence assay of in vitro hIAPP aggregation; assay type: biochemical; settings: for effect on aggregation lag time (tlag) / inhibition of hIAPP aggregation (ThT fluorescence): 10 μM hIAPP, PBS pH 6.9, 32° C.; for effect on aggregation lag time (tlag): ThT; for activity relative to MCIP-2a: at higher peptide:hIAPP stoichiometries; for inhibition of hIAPP aggregation (ThT fluorescence): chemically synthesized peptide, quiescent
T1 construct: A 1 mg portion of amylin trifluoroacetate salt (Bachem) was purchased as lyophilized solid in a vial; purchased Bachem
T1 sequence (P10997 34-70 limits assumed): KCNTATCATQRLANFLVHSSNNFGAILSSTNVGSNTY
Description: Preparation of ThT stock solution. To prepare a stock solution of ThT (2-3 mM), 2-4 mg of ThT was added to 3 mL PBS (pH 6.9) in a 15 mL conical tube. The solution was sonicated for 5 min and the supernatant was filtered through a 0.22 μm syringe filter into a 1.5 mL Eppendorf tube. This was the ThT stock solution to be used in following experiments. 2 mL of a 1:200 diluted ThT solution was prepared by adding 10 μL ThT stock solution into 1990 μL PBS. The absorbance of the diluted ThT solution measured at 412 nm was used to calculate the ThT stock concentration using an extinction coefficient (c) of 31600 M^−1 cm^−1.
Preparation of hIAPP stocks. A 1 mg portion of amylin trifluoroacetate salt (Bachem) was purchased as lyophilized solid in a vial. The solid was dissolved in pre-chilled 2562 μL 35 mM sodium acetate (pH 5.3) to a stock concentration of 100 μM on ice. Aliquots of hIAPP were prepared by transferring 200 μL of the 100 μM hIAPP stock solution to low-protein-binding Eppendorf tubes on ice. The aliquots were then immediately snap frozen using liquid N2, lyophilized for 24 h, and stored at −80° C. until use.
Preparation of samples for ThT assays. Using cyclic peptide stock solution (100 μM) and PBS, 400 μL aqueous solution of cyclic peptide was prepared in a low-protein-binding Eppendorf tube to achieve the desired cyclic peptide:hIAPP molar ratio (80 μM for 4:1, 40 μM for 2:1, 20 μM for 1:1, 10 μM for 0.5:1, 0 μM for 0:1). 30 μL of the solution was then loaded to wells on a black clear-bottom low-binding 96-well plate (Corning 3881) to make a triplicate for each condition. This plate loaded with aqueous solutions of cyclic peptides was then ready for adding hIAPP.
Preparation and addition of hIAPP for ThT assays. Using ThT stock solution and PBS, 1 mL ThT solution (10 μM) was prepared in a low-protein-binding Eppendorf tube and chilled on ice. 0.5 mL of the pre-chilled ThT solution was added to one aliquot of lyophilized hIAPP, which was equilibrated to room temperature before opening the tube. Pipetting up and down four times was performed to facilitate complete dissolving of hIAPP. The 0.5 mL hIAPP-containing solution was immediately transferred to the remaining 0.5 mL ThT solution on ice. Pipetting up and down four times was performed to facilitate complete mixing. The resulting 1 mL hIAPP solution, where [hIAPP]=20 μM, was immediately transferred to a 25 mL liquid reservoir. Using a multi-channel pipette, 30 μL of the hIAPP solution was quickly loaded into wells containing aqueous solutions of cyclic peptides on the 96-well plate. Final [hIAPP]=10 μM, [ThT]=5 μM.
ThT assay conditions. The plate was then quickly covered and incubated in a Tecan M Plex microplate reader under quiescent condition at 32° C. for at least 12 h. ThT fluorescence at 480 nm was measured every 5 min through the bottom of the plate using an excitation wavelength of 440 nm.
Fitting of aggregation kinetics. ThT aggregation kinetics data was fit to a sigmoidal function using GraphPad Prism and the aggregation lag time (tlag) and the apparent fibril elongation rate (kapp) calculated as described.^55

hIAPP [2] = biological target: T1, hIAPP; test: TEM analysis of hIAPP fibril formation; assay type: biochemical; settings: 10 μM hIAPP, 40 μM cyclic peptide; for hIAPP fibril formation / aggregation onset by TEM: 2 h; for morphology of hIAPP fibrils by TEM: longer incubation (14 h)
Description: Transmission electron microscopy (TEM) was performed at the University of Wisconsin School of Medicine and Public Health Electron Microscopy facility. hIAPP and cyclic peptide were dissolved in 25 mM sodium phosphate buffer (pH 6.8 with 0.4% DMSO) to achieve a molar ratio of 1:4 at concentrations of hIAPP=10 μM and cyclic peptide=40 μM. The sample was incubated quiescently at 32° C. before TEM analysis. 2 μL of the sample was placed onto Formvar-coated copper grids and the excess liquid was blotted away. 2 μL of diluted Nano-W solution was then added to stain the grids and the excess liquid was blotted away. The TEM analysis was performed on Philips CM120 at 80 kV and digital images were obtained with an AMT BioSprint12 camera.

Aβ42-T7n = Aβ42-T7n (UniProt P00573+P05067); settings: clonal SP encoding the sequence
Text: Therefore, we turned to a split-T7 RNA polymerase (T7 RNAP) reporter used to evolve proteins with improved soluble expression.^33 In our new selection, host E. coli express an aggregation-prone protein (APP) fused to the N-terminal half of split-T7 RNAP (T7n). When the APP-T7n fusion is translated, it misfolds due to the APP, preventing T7n from associating with the C-terminal half of split-T7 RNAP (T7c; FIG. 2A). If a SP-encoded inhibitor binds to and prevents APP aggregation, the fused T7n will remain folded and join with T7c to produce full-length T7 RNAP. The reconstituted T7 RNAP then transcribes gIII, which we place under control of the T7 promoter (PT7), producing pill and allowing the SP to reproduce (FIGS. 2A and 2B).
We used the SICLOPPS method to biosynthesize cyclic peptides that can be selected in E. coli.^15 In SICLOPPS, a precursor fusion consisting of the C-terminal half of the Ssp DnaE split intein, the peptide sequence to be cyclized, and the N-terminal half of the same split intein undergoes intein splicing after translation to produce head-to-tail cyclized peptides (FIG. 7).
(§1) Strain S206035 was used for plasmid cloning, amplification, and phage assays. Strain S220835 was used for SP cloning and plaque assays. Plasmids and SPs were cloned by USER assembly or blunt-end ligation. Competent cells were prepared and transformed using the TSS method. Phage propagation and plaque assays were performed as previously described.^54 Unless otherwise noted, phage propagation assays used an input of […] phage to infect a 2 mL culture of host cells.

hIAPP-T7n = hIAPP-T7n (UniProt P00573+P10997); settings: clonal SP encoding the sequence (FIG. 5E)
Text: Next, we examined if our system could discover inhibitors of other disease-associated APPs. We targeted human islet amyloid polypeptide (hIAPP), which forms amyloid deposits in patients with type-2 diabetes that are hypothesized to contribute to […] dysfunction.^40 To create a selection for hIAPP aggregation inhibitors, we simply cloned hIAPP in place of Aβ42 in our selection circuit (FIG. 2B). We used an SP-encoded CZ6 SICLOPPS library (Z=NDT codon encoded amino acid: R, N, D, C, G, H, I, L, F, S, Y, or V) (˜3×10^6 total sequences). This codon set was chosen to reduce the theoretical library size and facilitate library cloning. The library (total of ˜5×10^6 transformants) was cloned on a SP obtained from an additional 250 hours of PACE using a more stringent selection (FIGS. 10A-10D).
as §1

Sequence of Aβ42-T7n (P05067+P00573 fused): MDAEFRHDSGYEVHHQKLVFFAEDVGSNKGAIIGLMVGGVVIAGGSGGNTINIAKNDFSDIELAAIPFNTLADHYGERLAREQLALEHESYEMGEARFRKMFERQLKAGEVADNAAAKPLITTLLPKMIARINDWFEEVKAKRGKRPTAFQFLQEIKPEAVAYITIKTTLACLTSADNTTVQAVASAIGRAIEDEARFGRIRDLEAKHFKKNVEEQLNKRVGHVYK
Sequence of hIAPP-T7n (P10997+P00573 fused): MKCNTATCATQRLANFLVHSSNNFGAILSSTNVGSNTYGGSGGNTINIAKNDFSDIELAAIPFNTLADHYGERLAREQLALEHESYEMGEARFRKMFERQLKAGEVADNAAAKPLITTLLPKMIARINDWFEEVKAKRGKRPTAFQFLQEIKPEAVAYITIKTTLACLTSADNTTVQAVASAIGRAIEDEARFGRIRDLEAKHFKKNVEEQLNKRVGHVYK

Substance | effect on aggregation lag time (tlag) (hIAPP [1]) | activity relative to MCIP-2a (hIAPP [1]) | inhibition of hIAPP aggregation (ThT fluorescence) (hIAPP [1]) | hIAPP fibril formation / aggregation onset by TEM (hIAPP [2]) | morphology of hIAPP fibrils by TEM (hIAPP [2]) | phage propagation activity (fitness) on Aβ42-T7n selection (Aβ42-T7n) | phage propagation activity on hIAPP-T7n selection (hIAPP-T7n)
CDLGVFR (cyclised; Circular) [cyclo-CDLGVFR] | extended tlag | less active than MCIP-2a | inhibited hNAPP fibrillation | delay hNAPP aggregation | do not change the overall appearance | – | –
CHVVGVI (cyclised; Circular) [cyclo-CHVVGVI] | delaying the aggregation lag time (tlag) in a dose-dependent fashion | less active than MCIP-2a | inhibited hIAPP aggregation | no fibrils are observed | No gross differences in morphology | propagated robustly | propagated robustly
CRCVFSG (cyclised; Circular) [cyclo-CRCVFSG] | extended tlag | less active than MCIP-2a | inhibited hNAPP fibrillation | delay hNAPP aggregation | do not change the overall appearance | – | –
